According to the NTF2 design screens of Basanta et al. (2020):

Experiment: protease stability score; higher = more stable; yeast display proteolysis, trypsin and chymotrypsin;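 note: relative to predicted unfolded state with 0 unfolded-like and 1 meaning tenfold more protease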

Sequence: DEEDELLMKVLTEWFHALRTGDEEKLDELADPNVRIEIGDKELHGMEVWQEYLRRYDHDRQDKVHFRTHEKQGNKLILDVEEDVVIEVNGKRIRTHVRSEIILVKINGRWVFTSIIVH
- protease stability score: 1.34

Sequence: DEEDELMKEYFELFWRDLLTGNEELLENLVDPHVRVKVGDKEFHGRHLLSKLASDMGVDHIQIEDMRVQGDKLSIDTTVDVNGKRRRMTLRARKVNGRWFFTELEVR
- protease stability score: 1.5

Sequence: DEEDELSEELSRFSLKTLRTGDEDLLSRNMDPHVRMDIDGQDLHGREHVIKFLKDWNRMFGIKHTELKHVRIQGNWIEIHARIQVGDKEMDLRIYAVKIDGRWLVHSIEVEKK
- protease stability score: 0.182

Sequence: DEEDELSHQIAEEFFRFFSTGNEEKSKELLDPDVRVESEDHHDHGMHKLLHLWNRIDHIHMRSRHVEFDRVGDFLEIRMRGHVILDVNGVRTEIDTELLLVVTKFDGRWLMHEVKFIIR
- protease stability score: 0.696

Sequence: DEEDEMAISLAKLFVDDLMTGNWRSLQHLLDPHTRLHVGDKEHHGRQKSVEWLKDLVRRIDHLEMDIHRLDVQGEKAESETESNVNIGDKEVRYHMELIILVVNGRVKEIEIRLG
- protease stability score: 0.941

Sequence: DEEDEQAKELSRIMMEVLRTGDEDMFTKLLDPNVRLEIGEKEDHGRERAMHWLIRFLYRIPNARFIWRDVDVHRINGRVLDTSDLQVRINGRDFKTFVITHIVKIDGRWRVTKLEVHIE
- protease stability score: 1.56

Sequence: DEEDEQLHRFAQLYFEAMVTGDEDLLRHLLDPHVRVHINGRELHGRENMAKWLKDFWDKYKNVQLNLHHIRVIGDKVHMDVEMDVNGREERVHIHVEMIDGVVHSSHHRIE
- protease stability score: 1.02

Sequence: DEEDEQREHLLELLFHFLRTGDEELLFRLADPRVRHVWNGRELHGRELVIEILDDELEKMGANHIHIDLERVRMVDGRLDVDGHIVIKIGDKSHFFDMHFHIRKIDGRWVIKDLTIR
- protease stability score: 0.853

Sequence: DEEDERLHEFAKLFADLWFTGDEEELHDLIDPHAKLNVDVNGRILDSHGREEFVKVLRKLREHLGVDHVELKDMKVQGDKVIIHGVLIINGRRFDSTLWVYIFNGKIESMEVRMR
- protease stability score: 1.69

Sequence: DEEDERNLKLFHLAMLASITGNEELIEQLVDPDVRIEINGRDKHGRETLIKLLERFDHFQWHRFHWRRLEIQGNKIIMLLEVHGTIHIGEFKIKLQTDTISIVTKIDGRWTIKELYIK
- protease stability score: 1.62

Sequence: DEEDERSKEAMEHFLENEITGDWKRLHELFDPNARMHINGREYHGREEVTNKFWEHNYRMGVKHVEVRDLEVINGRVHLHVEQDVGEFHIELEVVIKKVNGRWLIEETEIHVR
- protease stability score: 0.987

Sequence: DEEDEVLKLAFEFIRHQLETGDEDTLNRYVDPHARFEVNGRDIHGRDRYNRFLEELYRKHGVEIKDVLLQDNKSQGDKIRIDIKINIDVNGREVNFDVHIIALKINGKWIHKRQIDI
- protease stability score: 0.542

Sequence: DEEDEYVEKATRFFIKSILTGNEEWVSRLADPHVRLWVGDKEFHGRERYVRVFHEHMRQIRYRDFKLHDIDRQGDKIIVIGRREVEVDGRIDTYEIHIYARKINGRWILESEIVN
- protease stability score: 0.936

Sequence: DEEDEYYNMALEHFVKTILTGNWKRFKKLADPHVRMEIDGREHHGREEATKVFNRFDHIKNFDFRDIELQGEKIEVHGELHGTINGKDVHTSFHIIMYKVNGKWEEKEVKFQ
- protease stability score: 1.28

Sequence: DEEDHDLELFLQIMTHDMRTGNEDNLTRLLDPHVRLEWNGKEFHGRDVMRFWREELGHDNVEVHMRLKDRELQGDKLIIHGEIIHRYNGREIRLDIHFIAHKVDGKWIARVRNIQ
- protease stability score: 1.64

Sequence: DEEDHESHEMMRQHFEAFVTGDFESFTRYADPHVRLIVGDKHFHGRDLIVHVFLRLWHELGVKVSRIKEIHSVGDKMHLDGELHVGDKRFRLLVEARKFDGRWFNKRVELVIL
- protease stability score: 1.48

Sequence: DEEDHHLRQIFEELLRALVTGDEEFLEQMADPRTRFILIIDGRRIEWHGREEFFRHFHEWRLRNYRITHLESYNGRIRVEGEVDENFNGKERHTKTHHTIIVINGRLHSIVLNIH
- protease stability score: 1.72

Sequence: DEEDHILLEIMRRVFESIMTGDEDLFRELADPNVRIRIGNKEMVGWEHIVKTLRKEDEDLGAKHKSFTLDDEDLIGNYAHVEGTLHIEFNGKDIHRHIRINVEVIDGRVKSIRMEDK
- protease stability score: 0.936

Sequence: DEEDHLMKHASEMFLHVMKTGDEDTLRRLVDPHVRLDWNGRKWHGRETVTRIIVENIHELGIDHIHLNHFEIYNGQADTNIEVRYNGKREEYHIHMHKVNGRWTVKSIHVTEE
- protease stability score: 1.5

Sequence: DEEDKALEESMRTYHESIHTGDEESFRLLFDPDVRMRINGVDLHGREAMEWMSERIDHLELRRIRFRSIETQGNKIRIDGHEDIEILVDGKRMRVIDRVIIQAVKVNGRWTIKSIKFG
- protease stability score: 1.15

Sequence: DEEDKDLHRWLEESTHAMLTGDEQHLTELADPNVKFNFDGREIHGREEYVKFMHRWIRHAGFKHIHVETKDVRVQGNKLHVDTHSIHDYNGRRVRTDTRVFVEKINGRWRLHSIEIE
- protease stability score: 1.4

Sequence: DEEDKEAHEMVNDALQDFLTGDEDSLRNLVDPNARFEAENHHLIGMETVEWHIREFKNVTIEVKRVDVEVQGDKAILRMNIDIRVNGKTIDEHWEVHVRKFNGQWIITIVKVEFR
- protease stability score: 2.17

Sequence: DEEDKFSREAIELWIRVLETGNEHLLHKLADPHVRVVFNGKESVGMEEFVEVLREIRIHTSRDRHVRLQGDKVDVDSIIDGEVNGVRTKVETQLIATKIDGRWVNQQVNWR
- protease stability score: 0.23

Sequence: DEEDKHADWIMKQMVDLWTTGDEETSITLLDPNVKLHVDGRDIHGREKAMEWLRRFIVHLRIEIIIRHFDFQGNFARFHGELEIRIGDKSQVLETRLEIIVVNGKFRILEIELR
- protease stability score: 2.71

Sequence: DEEDKHLIDMFRILMRTIETGNEEETRKLMDPHTIIEIGDKRSHGWESWKKFIEDLERRFDHVRIEIEDVKVQGDKAIVRTRLKLIVGDKHFEHDTRIFVVMVNGRIHTFRVEID
- protease stability score: 1.48

Sequence: DEEDKHLQEMVEKLVKNWLTGDWDKLRELLDPNTKSNIGEYTSIGWEKDAEAFEKLIHELGIKHMNFLIRRIHVVDGRAHSDVEIELEVDGRNTEVKTHLIVVIINGRVKSITVEYK
- protease stability score: 0.297

Sequence: DEEDKKVKYFLNEWLHAVKTGDEEHLKRLADPRTYEQVGDKHYHGRETFRRFLHDLLEEMRFHRIHIKFSQMVNGVFYVNGELDGTFDGRRHRTDMRLEFEVVNGRIHELRIEIV
- protease stability score: 1.18

Sequence: DEEDKLSKEFSRTWEEIWRTGDEQEIKHLADPDTRDLVYIDGVNIDNHGREEMSRSMREWRDKFKNAREHVTHSRAQGDKVEMRIRIDFNGREIDMIVKIIVVDGRLKEFEIEIR
- protease stability score: 1.56

Sequence: DEEDKMAEFFMRLIFRAWLTGDEEELEKFMDPNTKHNLDIDGRNDHQIGRHEIVHHLKHFWRRYDHVQVKIRKYHIQGEKAHLHGHLILFIDGVEIRHNIEIRVVVINGRVHSVTMHIH
- protease stability score: 1.79

Sequence: DEEDKMVRVLVELWVENFITGDEEKLYELMDPDTRLEIDGVENHGMEKAIEFLERHREHYGVDHIHLIIHEVKHQGNKAHIDGILEFRQGDKQIELHWELHFEVVNGRMKEVHVNTR
- protease stability score: 2.29

Sequence: DEEDKNTHEFARRIIESWVTGDWKDLHELIDPHARLILDVGNKKEIYHGREEVKRRLLREIEKFKNVRFEIRDLHVVGDKVDAEVTLHIDGKDIEIHIHLLIVNGKVKEIRLHYH
- protease stability score: 2.27

Sequence: DEEDKWDELLLEILIRIEKTGDEEKWLRFLDPHVRLDVDGQEVHGREEVVRVQKEWKERLGVKHIVIKRTKVVNGRIDMDKVMNVDGVNIKVHYHYHLVNGVLHEVEVRLE
- protease stability score: 0.992

Sequence: DEEDKWETHFLKVLEDSLKTGDETSLERMADPTARLSVGDKEHHGRDLLFFWIHKLLREAGVDKVESELHDEERQGEKVIVDIHLRVGDKVLRVIFYIYKYNGQWFIRSIEVE
- protease stability score: 1.04

Sequence: DEEDMDEVEKAIRKNDPEKMRDLADENAKASVGDNQFHGRDNVENFMKHLTDHADHVQVDSVEKHNGRVVVNAQLDINGEQIQIVIRIDVHNGKIKRFSIEVRDEEAHHFMREMVS
- protease stability score: 0.686

Sequence: DEEDNMMREIWKQLVDNQRTGDEDRLQDLIDPHVRIIINIDGRELRSHGRHELVRWLREMGVDYLDIKSYRLQGDKIETDGTLSIGDKTKEVEVRYNIIDGRTKEVEFHLR
- protease stability score: 0.167

Sequence: DEEDQDWERILEELLRSLLTGDEEFIRRLIDPNVRMHIKQGDKRINLHGRDAIEKLLELLHRRIKGVRIEIKRHDIQGDKIYVDGVINIDGKEFKIIIHIIVINGRLHTVSFETE
- protease stability score: 1.9

Sequence: DEEDQFTEKITRILHEIHRTGDFEKWEKLADPHVKVVIGEFEQHGRETASWVIEWLARYMGIKHIELRDHRVINGVVHLEHEVKVGDKRIDLELRHFVYDGRLKETEIRFR
- protease stability score: 0.734

Sequence: DEEDRDAEFFMRLWMRLHKTGDEDQLRELLDPDVRVRFENREFHGREELIKFIHRHRREARTDVKIRDFRVQGDKVIVHGELILQFDGVRFNHDLILITRKIDGRWRIEEIEVR
- protease stability score: 1.84

Sequence: DEEDREAHEAIRILIDLLRTGDFDSLTRLADPHVRLDIGDKRLHGMKDFSRWILELRIHNFDLRHFDLVGDKIHVEGSLHTEFNGKHHEIHIQINITKVNGRWKIDEVTSL
- protease stability score: 1.63

Sequence: DEEDREKDDLLRRFITAIYTGDERAIKEYLDPHVRTVFNGQEKHGREEVTTLVWQIMRELGIKVIRTHDEREQGNKVELHLELFVGNKRLEINVFAEKVDGKWILRQFIIKVD
- protease stability score: 1.2

Sequence: DEEDRELEEMLELIIHAFKTGDEEIMKRLFDPNTRIRINGREEIGWEHAVKILREWRFRHVILRRKHKQGDKLHYEFEVHGHFDGQQDSVHVRILILKVNGRWIITEYIFV
- protease stability score: 2.51

Sequence: DEEDRELERIYQELFEAWLTGNEDDLKKLADPNVRVDINGKDKVGREQEIEDLRRVKNMKVKLEDSDIIGDWITVDVVINFNGREIRMELEWRVINGKVKRVIVRYR
- protease stability score: 1.2

Sequence: DEEDRFAEEYIRLLHEIIKTGDWHQLKRMVDPNARWDVNGVDVIGMEEYVRVWKDEIDRFKGLRLHPRIRHVDFINGRIHVHSEKKVEYGDKEETFETKRHIFLFNGVDTHFSIRID
- protease stability score: 0.278

Sequence: DEEDRHAEEVFRTLIHAWHTGDEDTLKRMLDPDVKILIGDKDHHGRDFFAREMHEISKHLRVHFELHELDVINGRVHVHGTLVITINGREIRITVHIHVLIVDGRVKLQKWIKV
- protease stability score: 0.583

Sequence: DEEDRHLEEFIRLWLHFFFTGDWEFHMKNADPNVKLDAENRSVHGRDDASRTLVEIVRRLGIDHVELKDSHVIDGVIELHLELKIGDKRRTMHIHINIFNGRIRSVRIHFS
- protease stability score: 1.28

Sequence: DEEDRKSERVLKEFLHDVLTGDEHTLNRLADPHVRLEVGDKEDHGREKLAKYMVRADHIEHVELRHHHFQGDKIHLHVKIRENVNGREVIFESIEIWLKIDGRWILDSLIVK
- protease stability score: 0.091

Sequence: DEEDRQAEHIARLVIEELLTGDEESFSHLVDPDTRSEFDGKEFIGREWFNKWLRRILEEIRFHINPTEIRYQGDKAIVHGRLHLHYNGQDVHITVHYKLIVINGRHKRIKEERS
- protease stability score: 1.3

Sequence: DEEDRRAKEIMRLLLEDFHTGNEDSLRELMDPTTRNDLVVNGQEHVIHGRETFAEWESKWIKHLRMNLRLRHVNAFNGQVRLETELNLEVNGRIIILDTEVIVHVYNGRIHSFTHRIK
- protease stability score: 0.236

Sequence: DEEDRRYEHWFKLFLEIFLTGDFDQWKKLLDPHVRVDVNGQERVGRDQISEAMRRLLEILGVDHIEVEEVHLQGEKVNLNTQENVNGVETHSRIHVIVINGRLRHSKMDIN
- protease stability score: 1.29

Sequence: DEEDRYMKELLEELLKDFETGNWDRLISLLDPHMRIQAENVTLHGRETTSRWLQEITSRVKGLRLHIESEEIQGDKAIIDGINNVNGREIRTILFSVKVDGRWLIKSIIIL
- protease stability score: 1.28
